{"source": "paper PMC3439536", "molecular_target": "Human CR2 SCR1-4-BCCP, site-specifically biotinylated (human) (UniProt P20023)", "sequence (P20023 21-273)": "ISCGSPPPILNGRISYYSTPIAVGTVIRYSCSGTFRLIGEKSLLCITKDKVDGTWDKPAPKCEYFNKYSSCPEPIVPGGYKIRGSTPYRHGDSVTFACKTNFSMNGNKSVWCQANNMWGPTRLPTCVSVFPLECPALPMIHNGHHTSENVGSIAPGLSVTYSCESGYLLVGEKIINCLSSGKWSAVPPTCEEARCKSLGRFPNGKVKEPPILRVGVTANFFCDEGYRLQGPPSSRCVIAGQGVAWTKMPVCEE", "assay": "SPR"}
{"substance": "70 kDa fragment of the Epstein-Barr virus gp350/220 coat protein (from UniProt P03200-1 1-907) (domain or fragment)", "values": [{"measurement": "KD1 (higher affinity site, two-site model)", "result": 0.417, "unit": "µM"}]}
